Eight molecules from patent EP1997885A1 (AXXAM S.p.A., dated 2008) can be followed below.

Where a chain is given by its changes, count along the chain named. In names and notes the source's numbering stands.

In data set [1] the target is recombinant (His6)-tagged DsRed2. Kind of data set: size exclusion chromatography on Superdex 200, 2 mg/mL, self-association. In general terms: Size exclusion chromatography separates by hydrodynamic size, large species first.
For data set [2], the target named is recombinant (His6)-tagged EGFP. The description is as above.
The target in data set [3] is AsGFP499(S103K), recombinant his-tagged (Anemonia sulcata). Kind of data set: pseudo-native SDS-PAGE, self-association.
Data set [4] shares this target. Kind of data set: size exclusion chromatography on Superdex 200, 2 mg/mL, self-association.
In data set [5] the target is AsGFP499(S103K/R150E), recombinant his-tagged (Anemonia sulcata). As to the kind of experiment: size exclusion chromatography on Superdex 200, 2 mg/mL, self-association; second peak.
Data set [6] has the same target. Kind of data set: size exclusion chromatography on Superdex 200, 2 mg/mL, self-association; first peak.
Data set [7] concerns the molecule itself. Kind of data set: pseudo-native SDS-PAGE, self-association.
Data set [8] has as its target AsGFP499(S94T/S103K/R150K/S171N/K206R), recombinant his-tagged (Anemonia sulcata). Kind of data set: size exclusion chromatography on Superdex 200, 2 mg/mL, self-association; second peak.
The target is the same in data set [9]. As to the kind of experiment: size exclusion chromatography on Superdex 200, 2 mg/mL, self-association; first peak.

For recombinant (His6)-tagged DsRed2, in data set [1], the Apparent MW [kDa] came to 79 kDa. For recombinant (His6)-tagged EGFP, the Apparent MW [kDa] in data set [2] was 27 kDa.

B1: AsGFP499(S103K), recombinant his-tagged (protein, not shown: small tags and cut ends)
chain: MYPSIKETMRVQLSMEGSVNYHAFKCTGKGEGKPYEGTQSLNITITEGGPLPFAFDILSHAFQYGIKVFAKYPKEIPDFFKQSLPGGFSWERVSTYEDGGVLKATQETSLQGDCIICKVKVLGTNFPANGPVMQKKTCGWEPSTETVIPRDGGLLLRDTPALMLADGGHLSCFMETTYKSKKEVKLPELHFHHLRMEKLNISDDWKTVEQHESVVASYSQVPSKLGHN
On to B1, for which, in data set [3], the MW on pseudo-native SDS-PAGE was less than 50 kDa. Besides, in data set [4], the Apparent MW [kDa] stood at 39 kDa.

B2: AsGFP499(S103K/R150E), recombinant his-tagged (protein, not shown: small tags and cut ends)
chain: B1 chain with R150E
For B2, the Apparent MW [kDa] was determined as 23 kDa in [5] and 39 kDa in data set [6].

B3: AsGFP499(S103K/F173E) (other)
chain: B1 chain with F173E
notes: Only tested on the pseudo-native gel; reported as partly monomeric; also called AsGFP499 (S103/F173E); not shown: tag and vector-encoded residues of the bacterial expression vector
As to B3, the binding result in data set [7] is reported as “binds”.

B4: AsGFP499(S103K/T159K/F173E), recombinant his-tagged (other)
chain: B1 chain with T159K, F173E
notes: Reported as a monomer; not shown: (His6) tag and vector-encoded residues of pET28a(+)
With B4, the binding result in data set [7] is reported as “no binding”.

B5: AsGFP499(S94T/S103K/R150K/S171N/K206R), recombinant his-tagged (protein, not shown: small tags and cut ends)
chain: B1 chain with S94T, R150K, S171N, K206R
As for B5, the Apparent MW [kDa] in data set [8] worked out at 23 kDa; in data set [9], 39 kDa.

B6: AsGFP499(S94T/S103K/T159K/F173E), recombinant his-tagged (other)
chain: B1 chain with S94T, T159K, F173E
notes: as for B4
As for B6, the binding result in data set [7] was “no binding”.
